Data on seven molecules can be found in patent publication US6277976, “Or-1, an orphan receptor belonging to the nuclear receptor family” (Karo Bio AB).

Data set [1] concerns the target T1, OR-1 (UniProt Q62755 SEQ:1-446).
T1 sequence: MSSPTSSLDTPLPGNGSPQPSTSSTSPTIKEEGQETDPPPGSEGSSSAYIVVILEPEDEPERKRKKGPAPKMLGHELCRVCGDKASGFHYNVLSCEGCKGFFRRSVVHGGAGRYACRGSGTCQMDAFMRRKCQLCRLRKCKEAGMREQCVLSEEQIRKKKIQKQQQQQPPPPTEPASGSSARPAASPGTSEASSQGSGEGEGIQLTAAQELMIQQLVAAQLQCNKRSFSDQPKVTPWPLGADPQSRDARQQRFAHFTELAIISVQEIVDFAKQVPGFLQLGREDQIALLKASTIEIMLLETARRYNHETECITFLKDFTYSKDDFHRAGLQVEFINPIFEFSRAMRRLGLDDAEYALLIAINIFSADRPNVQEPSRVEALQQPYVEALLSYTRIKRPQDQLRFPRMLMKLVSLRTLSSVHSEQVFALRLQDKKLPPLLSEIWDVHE
Put plainly: EMSA; OR-1 alone. As to conditions: tags: none; TNT reticulocyte lysate; label: 32P. On the procedure: (§1) Gel shifts were performed using in vitro-translated OR-1 and RXR with the commercially-available TNT™-coupled reticulocyte lysate system (Promega, Madison USA). Proteins were incubated on ice for 15 min with 4 μg of poly (dI-dC) and with unlabelled competitor DNA where indicated in a solution comprising 100 mM KCl; 10 mM Hepes, pH 7.6; 1 mM dithiothreitol; 1 mM EDTA; 10% (wt./vol) glycerol, before addition of 0.5 ng of a ^32P-end labelled oligonucleotide probe. The reaction mixtures were incubated for a further 10 min at 22° C. before electrophoresis at 200V and 4° C. in pre-run 4% polyacryliamide/0.25 TBE (0.089 m tris-borate pH 8.3, 0.025 EDTA) gels. The following oligonucleotides and their complements were used as probes: DR0 […] (SEQ ID NO:3) DR1 […] (SEQ ID NO:4) DR2 […] (SEQ ID NO:5) DR3 […] (SEQ ID NO:6) DR4 […] (SEQ ID NO:7) DR5 […] (SEQ ID NO:8) DR6 […] (SEQ ID NO:9)
(§2) The appearance of this complex depends on the presence of RXR and is inhibited by a 10-fold excess of the specific DNA target element, but not by a 100-fold excess of an unrelated DNA element—see FIG. 5B, lane 7)

The next data set concerns the target T2, RXR (RXRalpha) (UniProt Q05343 Q05343:1-467).
T2 sequence: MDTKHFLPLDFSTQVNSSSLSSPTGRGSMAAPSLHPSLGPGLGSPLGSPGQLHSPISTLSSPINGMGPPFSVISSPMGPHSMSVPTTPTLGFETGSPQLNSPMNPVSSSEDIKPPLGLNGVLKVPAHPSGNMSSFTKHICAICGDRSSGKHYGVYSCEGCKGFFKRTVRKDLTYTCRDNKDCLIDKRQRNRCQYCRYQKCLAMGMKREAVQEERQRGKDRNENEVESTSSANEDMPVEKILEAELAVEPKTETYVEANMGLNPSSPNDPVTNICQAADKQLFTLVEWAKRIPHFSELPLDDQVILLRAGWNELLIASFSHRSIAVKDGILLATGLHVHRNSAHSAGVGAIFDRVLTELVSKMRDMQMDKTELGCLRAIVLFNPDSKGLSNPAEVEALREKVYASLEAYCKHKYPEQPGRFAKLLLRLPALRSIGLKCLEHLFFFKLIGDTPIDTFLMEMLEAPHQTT
Briefly: EMSA; RXR alone. As to conditions: tags: none; pRRXR-T7, TNT reticulocyte lysate; label: 32P. The procedure: as §1, §2

A further data set deals with T3, OR-1/RXR heterodimer (UniProt Q62755;Q05343 Q62755:1-446,Q05343:1-467).
T3 sequence 1: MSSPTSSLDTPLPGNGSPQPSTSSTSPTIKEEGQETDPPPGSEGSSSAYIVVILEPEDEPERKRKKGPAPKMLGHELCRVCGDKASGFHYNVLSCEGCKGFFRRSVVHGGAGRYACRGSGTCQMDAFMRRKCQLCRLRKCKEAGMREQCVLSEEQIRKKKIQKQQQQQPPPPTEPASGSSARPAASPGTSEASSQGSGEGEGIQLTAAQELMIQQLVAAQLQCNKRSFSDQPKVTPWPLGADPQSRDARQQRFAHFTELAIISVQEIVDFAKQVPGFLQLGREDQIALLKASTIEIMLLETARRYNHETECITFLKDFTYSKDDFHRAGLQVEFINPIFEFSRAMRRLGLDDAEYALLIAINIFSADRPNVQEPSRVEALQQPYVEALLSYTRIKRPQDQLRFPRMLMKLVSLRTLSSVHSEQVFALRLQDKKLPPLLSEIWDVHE
T3 sequence 2: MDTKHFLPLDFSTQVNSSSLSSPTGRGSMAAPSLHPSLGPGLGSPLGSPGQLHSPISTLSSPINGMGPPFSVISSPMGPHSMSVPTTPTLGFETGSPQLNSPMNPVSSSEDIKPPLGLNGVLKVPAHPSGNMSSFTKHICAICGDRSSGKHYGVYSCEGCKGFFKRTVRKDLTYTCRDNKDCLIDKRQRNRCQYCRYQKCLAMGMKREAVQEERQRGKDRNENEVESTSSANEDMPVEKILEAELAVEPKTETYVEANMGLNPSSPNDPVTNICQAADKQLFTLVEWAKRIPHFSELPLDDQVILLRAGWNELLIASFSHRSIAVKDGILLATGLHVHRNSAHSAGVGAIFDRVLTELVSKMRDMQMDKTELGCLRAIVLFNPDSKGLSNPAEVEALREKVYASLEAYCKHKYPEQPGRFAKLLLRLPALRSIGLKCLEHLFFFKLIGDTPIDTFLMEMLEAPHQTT
Briefly: EMSA; 100 mM KCl, 10 mM Hepes pH 7.6, 1 mM EDTA, 22 C; inhibited by 10-fold excess specific DNA, not by 100-fold unrelated DNA. As to conditions: tags: RXR from pRRXR-T7; label: 32P. On the procedure:
as §1, §2
For orientation: In EMSA bound probe runs differently from free probe, usually more slowly.

In data set [2] the target is T1, OR-1. Put plainly: EMSA; OR-1 alone. The settings on record: tags: none; TNT reticulocyte lysate; label: 32P. The procedure: as §1
This is another data set of the same source.

B1: DR4 (dsDNA)
DNA 1: AGTCAGGTCACTCGAGGTCAGTCA
DNA 2: TGACTGACCTCGAGTGACCTGACT
As to B1, the binding result is “no binding” in the data set with OR-1 [1], “no binding” with RXR (RXRalpha) and “binds” with OR-1/RXR heterodimer.

B2: DR3 (dsDNA)
DNA 1: AGTCCAGGTCACTCAGGTCAGTCA
DNA 2: TGACTGACCTGAGTGACCTGGACT
Turning to B2, in the data set with OR-1 [2], the binding result was “no binding”.

B3: DR1 (dsDNA)
DNA 1: AGCTTCAGGTCACAGGTCAGTTCA
DNA 2: TGAACTGACCTGTGACCTGAAGCT
As to B3, in the data set with OR-1 [2], the binding result was “no binding”.

B4: DR5 (dsDNA)
DNA 1: AGTCAGGTCACTCGTAGGTCAGTCA
DNA 2: TGACTGACCTACGAGTGACCTGACT
With B4, in the data set with OR-1 [2], the binding result is on record as “no binding”.

B5: DR0 (dsDNA)
DNA 1: AGCTTCAGGTCAAGGTCAGGTTCA
DNA 2: TGAACCTGACCTTGACCTGAAGCT
With B5, the binding result with OR-1 [2] is “no binding”.

B6: DR2 (dsDNA)
DNA 1: AGCTTAGGTCACCAGGTCAGTTCA
DNA 2: TGAACTGACCTGGTGACCTAAGCT
Consider B6, for which the binding result in the data set with OR-1 [1] is recorded as “no binding”.

B7: DR6 (dsDNA)
DNA 1: AGTCAGGTCACTCGTTAGGTCAGTCA
DNA 2: TGACTGACCTAACGAGTGACCTGACT
With B7, in the data set with OR-1 [2], the binding result is listed as “no binding”.
